Residue numbers refer to the chain shown, from its start. Numbers in names are those of the source.

Assay [1] concerns E13 chick DRG growth cones. Description: Nogo-induced growth cone collapse in E13 chick DRG neurons overexpressing NgR proteins. Type of assay: cell-based. The note with it: E13 DRG cells with endogenous NgR; 100 μM Nogo-66 (FIG. 2 legend). On the procedure:
(§1) FIG. 2 quantifies collapsed E7 (A) or E13 (B) chick DRG growth cones expressing the indicated proteins and exposed (dark) or not exposed (light) to 100 μM Nogo-66.
At E13, DRG neurons express NgR and respond to Nogo with growth cone collapse that is not altered by overexpression of wild-type NgR. (FIG. 2B). […] (FIG. 2B). Thus, NgR-R377Q is a dominant negative protein.

Assay [2] concerns E7 chick DRG growth cones. Kind of assay: Nogo-induced growth cone collapse in E7 chick DRG neurons expressing NgR proteins. Format: cell-based. Conditions: for growth cone collapse in the presence of Nogo: E7 DRG cells expressing the protein from a viral vector, 100 μM Nogo-66 (FIG. 2 legend). On the procedure: as §1
The signaling ability of the NgR mutant proteins was directly assessed by expressing the proteins in chick DRG neurons and monitoring Nogo-induced growth cone collapse. […] (FIG. 2A).

B1: wild-type NgR: Wild-type full-length human NgR protein (protein, listed as Homo sapiens)
chain: MKRASAGGSRLLAWVLWLQAWQVAAPCPGACVCYNEPKVTTSCPQQGLQAVPVGIPAASQRIFLHGNRISHVPAASFRACRNLTILWLHSNVLARIDAAAFTGLALLEQLDLSDNAQLRSVDPATFHGLGRLHTLHLDRCGLQELGPGLFRGLAALQYLYLQDNALQALPDDTFRDLGNLTHLFLHGNRISSVPERAFRGLHSLDRLLLHQNRVAHVHPHAFRDLGRLMTLYLFANNLSALPTEALAPLRALQYLRLNDNPWVCDCRARPLWAWLQKFRGSSSEVPCSLPQRLAGRDLKRLAANDLQGCAVATGPYHPIWTGRATDEEPLGLPKCCQPDAADKASVLEPGRPASAGNALKGRVPPGDSPPGNGSGPRHINDSPFGTLPGSAEPPLTAVRPEGSEPPGFPTSGPRRRPGCSRKNRTRSHCRLGQAGSGGGGTGDSEGSGALPSLTCSLTPLGLALVLWTVLGPC
Take B1: the “effect of overexpression on extent of Nogo-induced growth cone collapse” value in assay [1] is reported as “not altered”. For the same molecule, the “growth cone collapse in the presence of Nogo” value in assay [2] is on record as “exhibited growth cone collapse in the presence of Nogo”.

B2: NgR-R377Q: Full length human NgR R377Q mutant protein (protein)
chain: B1 chain with R377Q
modifications: Human NgR R377Q mutant
notes: Full length human NgR R377Q mutant protein
With B2, the “effect of overexpression on extent of Nogo-induced growth cone collapse” value in assay [1] is reported as “significantly decreased”. Also, the “growth cone collapse in the presence of Nogo” value in assay [2] is “did not”. For the same molecule, the “signaling ability (signal transduction)” value in assay [2] (E7 DRG cells expressing the protein, Nogo-induced growth cone collapse as readout) was “inactive in signal transduction”.

The values above are taken from patent publication US7893032B2, “NgR variants and compositions thereof for suppressing axonal growth inhibition” (Yale University, priority 2005, dated 2011).
